Assay results as given in patent US20230227545A1 (published 2023).

What was measured:
[1] = target: T1, human IL-1β (human, UniProt P01584 117-269); experiment: cell-based or functional assay
[2] = target: T2, cynomolgus IL-1β (cynomolgus macaque, UniProt P79182 117-268); experiment: SPR, Biacore 8K, mAb captured on goat anti-human Fc C1 chip, soluble IL-1β as analyte, 1:1 Langmuir fit
T2 construct: also called cyno IL-1β; Cyno IL-β
T2 sequence (looked up): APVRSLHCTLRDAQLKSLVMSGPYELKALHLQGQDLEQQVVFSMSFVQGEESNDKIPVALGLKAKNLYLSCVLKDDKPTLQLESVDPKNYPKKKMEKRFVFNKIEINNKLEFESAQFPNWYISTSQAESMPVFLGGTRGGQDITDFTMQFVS
Procedure: (§1) Affinity assessment of 05H21A, 15N14A, and 08F17A against human IL-1β was performed by Surface Plasmon Resonance (SPR) using a Biacore 8k. Cross-reactivity of the same antibody panel was also assessed against cyno, mouse, rat and pig IL-1β.
(§2) SPR is a label-free technique to study the strength of an interaction between two binding partners by measuring the change in mass upon complex formation and dissociation. Briefly, antibodies were immobilized on a sensor chip which was coupled with goat anti-human Fc (GAH-Fc C1 sensor chip). Soluble IL-1β was flowed over the immobilized antibody and association/dissociation responses were monitored. Kinetic information (on-rate and off-rate constants) were extracted by fitting sensorgrams to the 1:1 Langmuir model. Binding affinity (KD) were reported as the ratio of rate constants (koff/kₒₙ).

[3] = target: T1, human IL-1β; experiment: as above
Procedure: as §1, §2

[4] = target: T1, human IL-1β; experiment: cell-based or functional assay; remark: listed apart in the source
[5] = target: T3, rat IL-1β (rat, UniProt Q63264 117-268); experiment: SPR, Biacore 8K, mAb captured on anti-human Fc chip, soluble IL-1β as analyte
T3 construct: also called rat IL-β
T3 sequence (looked up): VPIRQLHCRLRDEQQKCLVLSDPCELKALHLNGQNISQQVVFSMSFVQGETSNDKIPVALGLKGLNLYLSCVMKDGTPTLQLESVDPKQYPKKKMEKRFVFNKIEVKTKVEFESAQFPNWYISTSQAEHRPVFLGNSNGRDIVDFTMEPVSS
Procedure: as §1, §2

[6] = target: T4, mouse IL-1β (mouse, UniProt P10749 118-269); experiment: as above
T4 construct: also called mouse IL-β
T4 sequence (looked up): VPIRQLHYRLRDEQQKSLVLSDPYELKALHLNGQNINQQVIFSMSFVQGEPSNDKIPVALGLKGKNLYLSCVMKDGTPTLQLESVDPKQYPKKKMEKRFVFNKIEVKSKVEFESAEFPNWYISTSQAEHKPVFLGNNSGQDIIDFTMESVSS
Procedure: as §1, §2

[7] = target: T5, pig IL-1β (pig, UniProt P26889 115-267); experiment: as above
T5 construct: also called pig IL-β
T5 sequence (looked up): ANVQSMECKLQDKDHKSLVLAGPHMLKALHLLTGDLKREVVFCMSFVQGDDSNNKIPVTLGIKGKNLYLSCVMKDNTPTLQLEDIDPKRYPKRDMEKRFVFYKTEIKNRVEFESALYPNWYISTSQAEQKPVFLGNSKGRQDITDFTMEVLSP
Procedure: as §1, §2

[8] = target: T1, human IL-1β; experiment: cell-based or functional assay; remark: listed apart in the source
[9] = target: T2, cynomolgus IL-1β; experiment: cell-based or functional assay

B1: 08F17A (antibody, human IgG1, kappa, V domains shown)
VH: EVQLVESGGGLVTPGGSLRLSCAASGFTFSGYSMNWVRQAPGKGLEWVSSISSSSGYIYYADSVKGRFTISRDNAKNSLYLQMNSLRAEDTAVYYCAREYWGSGFDYWGQGTLVTVSS
VL: DIQMTQSPSSLSASVGDRVTITCRASQGISYYLAWYQQKPGKVPKLLISAEFTLQSGVPSRFSGSGSGTDFTLTISSLQPEDVATYYCQKYNTAPRTFGQGTKVEIKR
notes: Kappa light chain; also called 08F17A (anti-IL-1β) mAb [IgG1: YTE]
For B1, the “IC30, inhibition of IL-6 release, human PBMCs (n=5 donors), 10 pM rhIL-1β” value [1] was 52 pM, the “IC30, inhibition of IL-6 release, human PBMCs (n=5 donors), 30 pM rhIL-1β” value [1] was 0.156 nM and the “IC50, inhibition of IL-6 release, human PBMCs (n=5 donors), 10 pM rhIL-1β” value [1] was 92 pM. For the same binder, the “IC50, inhibition of IL-6 release, human PBMCs (n=5 donors), 30 pM rhIL-1β” value [1] was 0.241 nM, the “IC90, inhibition of IL-6 release, human PBMCs (n=5 donors), 10 pM rhIL-1β” value [1] was 0.402 nM and the “IC90, inhibition of IL-6 release, human PBMCs (n=5 donors), 30 pM rhIL-1β” value [1] was 0.744 nM. It also gave a Kd [2] of 1.71 nM, a koff [2] of 0.000295 s⁻¹ and a kon [2] of 172000 M⁻¹ s⁻¹. The Kd [3] was 0.18 nM, the “IC30, inhibition of rhIL-1β-induced CXCL5 release, human whole blood (5 donors)” value [4] was 1.33 nM and the “IC30, inhibition of rhIL-1β-induced G-CSF release, human whole blood (5 donors)” value [4] was 0.704 nM. The “IC30, inhibition of rhIL-1β-induced IL-6 release, human whole blood (5 donors)” value [4] was 0.872 nM, the “IC50, inhibition of rhIL-1β-induced CXCL5 release, human whole blood (5 donors)” value [4] was 2.86 nM and the “IC50, inhibition of rhIL-1β-induced G-CSF release, human whole blood (5 donors)” value [4] was 1.31 nM. The “IC50, inhibition of rhIL-1β-induced IL-6 release, human whole blood (5 donors)” value [4] was 1.53 nM, the “IC90, inhibition of rhIL-1β-induced CXCL5 release, human whole blood (5 donors)” value [4] was 20.8 nM and the “IC90, inhibition of rhIL-1β-induced G-CSF release, human whole blood (5 donors)” value [4] was 6.58 nM. The “IC90, inhibition of rhIL-1β-induced IL-6 release, human whole blood (5 donors)” value [4] was 6.56 nM, the binding result [5] was “no binding” and the binding result [6] was “no binding”. The binding result [7] was “no binding”, the “IC30, inhibition of rhIL-1β-induced cytokine release, NHDF donor 29114” value [8] was 0.087 nM and the “IC30, inhibition of rhIL-1β-induced cytokine release, NHLF donor 34325” value [8] was 0.127 nM. For the same binder, the “IC30, inhibition of rhIL-1β-induced cytokine release, NHLF donor 35234” value [8] was 0.09 nM, the “IC50, inhibition of rhIL-1β-induced cytokine release, NHDF donor 29114” value [8] was 0.174 nM and the “IC50, inhibition of rhIL-1β-induced cytokine release, NHLF donor 34325” value [8] was 0.293 nM. For the same binder, the “IC50, inhibition of rhIL-1β-induced cytokine release, NHLF donor 35234” value [8] was 0.207 nM, the “IC90, inhibition of rhIL-1β-induced cytokine release, NHDF donor 29114” value [8] was 1.07 nM and the “IC90, inhibition of rhIL-1β-induced cytokine release, NHLF donor 34325” value [8] was 2.55 nM. The “IC90, inhibition of rhIL-1β-induced cytokine release, NHLF donor 35234” value [8] was 1.8 nM, the “IC30, inhibition of G-CSF release, cynomolgus lung fibroblasts (CLF), 15 pM rcynoIL-1β” value [9] was 3.58 nM and the “IC30, inhibition of IL-6 release, cynomolgus dermal fibroblasts (CDF), 5 pM rcynoIL-1β” value [9] was 2.72 nM. The “IC30, inhibition of IL-6 release, cynomolgus lung fibroblasts (CLF), 15 pM rcynoIL-1β” value [9] was 3.44 nM, the “IC50, inhibition of G-CSF release, cynomolgus dermal fibroblasts (CDF), 5 pM rcynoIL-1β” value [9] was 3.24 nM and the “IC50, inhibition of G-CSF release, cynomolgus lung fibroblasts (CLF), 15 pM rcynoIL-1β” value [9] was 6.11 nM. For the same binder, the “IC50, inhibition of IL-6 release, cynomolgus dermal fibroblasts (CDF), 5 pM rcynoIL-1β” value [9] was 5.1 nM, the “IC50, inhibition of IL-6 release, cynomolgus lung fibroblasts (CLF), 15 pM rcynoIL-1β” value [9] was 6.97 nM and the “IC90, inhibition of G-CSF release, cynomolgus lung fibroblasts (CLF), 15 pM rcynoIL-1β” value [9] was 24.3 nM. For the same binder, the “IC90, inhibition of IL-6 release, cynomolgus dermal fibroblasts (CDF), 5 pM rcynoIL-1β” value [9] was 25.9 nM and the “IC90, inhibition of IL-6 release, cynomolgus lung fibroblasts (CLF), 15 pM rcynoIL-1β” value [9] was 43.6 nM.
